Reference: patent publication US20150368301

Test system: Unphosphorylated Nox1 peptide (KLKTQKIYF, "LocKiT")

PKC-βI (protein kinase C-βI)
in vitro kinase assay, heat of phosphorylation measured by ITC; dot blot with p-STY antibody: The slope of the reaction following the heat of dilution confirms that the Nox1 peptide is a substrate for PKC-βI
